Source: patent publication US20230227833

System: Reverse transcriptase (RT)
Assay: inhibition
Conditions: RNA strand 3' phosphate; DNA strand 3' dideoxy; 37 C; activity fully released at 55 C

“TCGAACGGGACGGCTGGCTGTGTGTGT / CCAGCCGTCC [analogs 6+7 (RNA/DNA)]” was tested. Which activity (% residual activity) did it give?
The activity (% residual activity) was 16.
